Assay results: patent publication CN101309933A (MEDIMMUNE LLC, dated 2008)

B1: 抗-EphA2抗体1H3 (antibody, V domains shown)
VH: EVQLLESGGGLVQPGGSLRLSCAASGFTFSMYAMRWVRQAPGKGLEWVSVIGPSGGWTPYADSVKGRFTISRDNSKNTLYLQMNSLRAEDTAVYYCARDRGIYGMDVWGQGTTVTVSS
VL: DIQMTQSPSFLSASVGDRVTITCRASQGISSYLAWYQQKPGKAPKLLIYAASTLQSGVPSRFSGSGSGTEFTLTISSLQPEDFATYYCLELNNYPFTFGLGTKVHIK
B2: 抗-EphA2抗体3F2 (antibody, V domains shown)
VH: EVQLVESGGGVVRPGGSLRLSCAASGFTVSDYSMNWVRQAPGKGLEWIGFIRNKANAYTTEYSASVKGRFTISRDDSKNTLYLQMNSLKTEDTAVYYCTTYPRYHAMDSWGQGTMVTVSS
VL: AIQLTQSPSSLSASVGDRVTITCRASQSISNNLHWYLQKPGQSPQLLIYYGFQSISGVPSRFSGSGSGTDFTLTISSLQPEDFATYYCQQANSWPLTFGGGTKLEIK

Tests used:
[1] = molecular target: T1, 小鼠EphA2 (expressed on cells) (mouse, UniProt Q03145 26-977); experiment: flow cytometry on cell lines, 1 μg antibody, PE goat anti-human IgG
T1 construct: whole, on cells; also called mouse EphA2; EphA2 on CT26, 4T1

[2] = molecular target: T2, 人EphA2 (expressed on cells) (human, UniProt P29317 24-976); experiment: as above
T2 construct: whole, on cells; also called human EphA2; EphA2 on PC3, HUVEC and other human cell lines
T2 sequence (P29317 24-976): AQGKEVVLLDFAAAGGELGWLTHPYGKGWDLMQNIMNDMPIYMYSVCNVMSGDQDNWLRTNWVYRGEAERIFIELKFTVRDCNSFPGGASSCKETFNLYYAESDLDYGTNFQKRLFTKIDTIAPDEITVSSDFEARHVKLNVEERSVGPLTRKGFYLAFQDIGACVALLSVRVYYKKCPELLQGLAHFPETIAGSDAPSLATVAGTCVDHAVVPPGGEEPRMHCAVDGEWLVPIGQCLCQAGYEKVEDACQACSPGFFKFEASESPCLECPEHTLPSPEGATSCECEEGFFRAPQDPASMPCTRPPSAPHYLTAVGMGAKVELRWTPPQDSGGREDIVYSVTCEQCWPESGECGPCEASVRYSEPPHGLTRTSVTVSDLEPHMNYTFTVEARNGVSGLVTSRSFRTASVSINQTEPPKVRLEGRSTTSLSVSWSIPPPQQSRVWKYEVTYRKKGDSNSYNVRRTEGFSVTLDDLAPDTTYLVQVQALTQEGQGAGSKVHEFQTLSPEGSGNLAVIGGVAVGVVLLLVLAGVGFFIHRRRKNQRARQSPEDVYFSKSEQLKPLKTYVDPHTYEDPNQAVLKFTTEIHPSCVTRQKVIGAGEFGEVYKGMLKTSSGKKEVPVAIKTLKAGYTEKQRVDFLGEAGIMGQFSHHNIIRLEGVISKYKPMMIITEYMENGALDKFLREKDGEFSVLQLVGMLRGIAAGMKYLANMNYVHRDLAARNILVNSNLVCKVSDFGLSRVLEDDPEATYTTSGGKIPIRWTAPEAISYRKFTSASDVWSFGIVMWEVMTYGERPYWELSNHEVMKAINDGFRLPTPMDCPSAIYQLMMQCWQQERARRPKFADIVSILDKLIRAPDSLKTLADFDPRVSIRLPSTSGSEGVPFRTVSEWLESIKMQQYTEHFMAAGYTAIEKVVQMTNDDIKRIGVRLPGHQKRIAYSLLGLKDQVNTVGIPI

T1 sequence (Q03145 26-977): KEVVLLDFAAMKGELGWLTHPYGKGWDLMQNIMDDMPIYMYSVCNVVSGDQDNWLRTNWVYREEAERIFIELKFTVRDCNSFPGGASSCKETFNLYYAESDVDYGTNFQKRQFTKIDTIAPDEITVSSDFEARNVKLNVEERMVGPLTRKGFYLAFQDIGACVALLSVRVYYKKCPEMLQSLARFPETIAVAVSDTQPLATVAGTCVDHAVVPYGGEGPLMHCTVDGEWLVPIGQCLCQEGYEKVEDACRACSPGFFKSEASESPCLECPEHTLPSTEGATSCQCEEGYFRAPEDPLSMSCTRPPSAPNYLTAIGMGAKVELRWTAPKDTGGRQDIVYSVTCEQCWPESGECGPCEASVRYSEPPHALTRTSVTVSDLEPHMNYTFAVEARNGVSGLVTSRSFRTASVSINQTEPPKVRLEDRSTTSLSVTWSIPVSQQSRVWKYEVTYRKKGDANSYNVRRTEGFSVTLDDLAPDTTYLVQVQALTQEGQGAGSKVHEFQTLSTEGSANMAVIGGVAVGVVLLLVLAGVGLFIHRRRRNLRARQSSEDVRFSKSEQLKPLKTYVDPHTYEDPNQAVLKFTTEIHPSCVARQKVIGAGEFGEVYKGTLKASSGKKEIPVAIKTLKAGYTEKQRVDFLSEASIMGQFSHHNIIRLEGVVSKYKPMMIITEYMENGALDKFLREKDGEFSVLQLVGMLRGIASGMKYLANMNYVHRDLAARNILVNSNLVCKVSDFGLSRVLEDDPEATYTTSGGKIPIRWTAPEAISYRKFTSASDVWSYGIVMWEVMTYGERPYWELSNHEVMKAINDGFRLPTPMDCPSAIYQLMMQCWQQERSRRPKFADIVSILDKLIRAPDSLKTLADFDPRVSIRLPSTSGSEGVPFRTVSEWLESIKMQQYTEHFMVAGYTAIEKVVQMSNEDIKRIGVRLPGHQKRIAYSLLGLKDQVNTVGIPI

Binder	binding result [1]	binding result [2]
B1	binds	binds
B2	binds	binds
